According to patent US20090011988A1 (Genentech, published 2009):
Positions of bridges follow the written chain, without caps; N, C: chain ends. No end group written: not given here. suc = not defined here

What was measured:
[1] = molecular target: T1, human IGFBP-1 (human, UniProt P08833 26-259); assay: competitive phage ELISA
T1 sequence (looked up): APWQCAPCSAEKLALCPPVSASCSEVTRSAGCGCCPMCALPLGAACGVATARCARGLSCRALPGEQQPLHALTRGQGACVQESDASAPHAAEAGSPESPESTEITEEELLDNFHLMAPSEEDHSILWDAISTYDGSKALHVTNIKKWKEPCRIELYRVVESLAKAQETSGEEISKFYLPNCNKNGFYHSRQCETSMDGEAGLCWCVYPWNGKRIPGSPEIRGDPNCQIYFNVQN
Description: E. coli cells (XL1-Blue, Stratagene) freshly transformed with phagemid vector were grown overnight in 5 mL 2YT medium (Sambrook et al., supra) in the presence of M13-VCS helper phage (Stratagene). Phage particles were harvested and resuspended in PBS buffer as described in Lowman, H. B., “Phage Display of Peptide Libraries on Protein Scaffolds,” in Cabilly, S. (ed.), Combinatorial Peptide Library Protocols (Humana Press Inc.: Totowa, N.J., 1998), pp. 249-264. Then phage concentrations were normalized to yield a maximal ELISA signal of 0.2-0.4 for each mutant (Lowman, in Cabilly, S. (ed.), supra). Threefold serial dilutions of soluble competitor were prepared on non-absorbent microtiter plates (Nunc, F, 96 wells) with binding buffer (0.5% TWEEN 20%/PBS) containing phage at the previously determined concentrations. […] After blocking, the plates containing immobilized target were washed with 0.05% TWEEN™/PBS buffer and subsequently incubated with 80 μl/well of the premixed phage-competitor solutions for 1 hour at room temperature. […] IC₅₀ values were determined by fitting the binding data to a generic saturation curve (Lowman, in Cabilly, S. (ed.), supra). At least two individual clones of each IGF-1 mutant were assayed. Numbers in Table XIII represent mean±standard deviation of individually assessed IC₅₀ values.

[2] = molecular target: T1, human IGFBP-1; assay: competitive phage ELISA, value as restated in Table XIV (Table XIII prints 7.0 for the same pair)
[3] = molecular target: IGF-1 G1S-A70V displayed on phage (human; bacteriophage M13); assay: competitive phage ELISA: phage on an IGFBP-3-coated plate (1 µg/ml), competed by soluble IGFBP-3; OD492, mean ± SD, n=2
[4] = molecular target: IGF-1 G1S-A70V displayed on phage (human; bacteriophage M13); assay: competitive phage ELISA: phage displaying G1S-A70V IGF-1 on an IGFBP-3-coated plate (1 µg/ml), competed by soluble IGFBP-3; OD492
[5] = molecular target: T2, recombinant human IGFBP-3 (human, UniProt P17936 28-291); assay: BIAcore competition, IGFBP-3 to IGF-1
T2 sequence (P17936 28-291 limits assumed): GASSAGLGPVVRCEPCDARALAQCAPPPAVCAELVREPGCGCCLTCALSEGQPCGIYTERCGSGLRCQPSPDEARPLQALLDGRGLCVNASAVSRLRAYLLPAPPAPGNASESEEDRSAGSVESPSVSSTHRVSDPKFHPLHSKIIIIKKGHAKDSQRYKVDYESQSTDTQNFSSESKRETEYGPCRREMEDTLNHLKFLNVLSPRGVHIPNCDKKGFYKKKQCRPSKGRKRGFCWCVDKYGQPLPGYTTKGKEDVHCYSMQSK

[6] = molecular target: T2, recombinant human IGFBP-3; assay: phage ELISA on IGFBP-3 plate, competitor IGF-1
[7] = molecular target: T1, human IGFBP-1; assay: BIAcore inhibition, 9-10 nM IGFBP-1 to immobilized IGF-1
[8] = molecular target: T1, human IGFBP-1; assay: BIAcore, IGFBP-1 coupled to chip
[9] = molecular target: T1, human IGFBP-1; assay: BIAcore kinetics, IGFBP-1 coupled to chip
Description: For each dilution of peptides, a global fit of the sensorgram data was performed using a 1:1 Langmuir binding model.

[10] = molecular target: T2, recombinant human IGFBP-3; assay: phage ELISA (IGF-blocking phage assay): titration of g8 peptide-phage on an IGFBP-3-coated plate in the presence of 100 nM IGF-1; OD492
Description: (§1) The plates were then washed ten times, as above, and a solution of rabbit anti-phage antibody mixed with a goat-anti-rabbit conjugate of horseradish peroxidase was added. After an incubation of 1 hour at room temperature, the plates were developed with a chromogenic substrate, o-phenylenediamine (Sigma). The reaction was stopped with addition of ½ volume of 2.5 M H₂SO₄. Optical density at 490 nm was measured on a spectrophotometric plate reader.

[11] = molecular target: T1, human IGFBP-1; assay: BIAcore inhibition assay; reference
[12] = molecular target: T2, recombinant human IGFBP-3; assay: phage ELISA: titration of g8 peptide-phage on an IGFBP-3-coated plate without IGF-1; OD492
Description: as §1

[13] = molecular target: T2, recombinant human IGFBP-3; assay: BIAcore competition, IGFBP-3 to IGF-1; remark: listed apart in the source
Description: (§2) IGF-1 was immobilized on a dextran chip for inhibition assays using a BIACORE™ 2000 surface-plasmon-resonance device (BIAcore, Inc., Piscataway, N.J.) to measure free binding protein. IGF-1 was biotinylated as described above, and injected over a chip to which streptavidin had been coupled (BIAcore, Inc.) to give 400 to 800 RU (response units) of immobilized IGF-1. […] After incubation for >1 hour at room temperature, an aliquot of 20:L was injected at a flow rate of 20:L/min over the IGF-1 chip.

[14] = molecular target: T2, recombinant human IGFBP-3; assay: BIAcore competition, IGFBP-3 to immobilized IGF-2
Description: as §2, with “IGF-2” for “IGF-1”, “approximately 1500” for “400 to 800”, “RU” for “RU (response units)”, “IGF-2.” for “IGF-1.”, “[…]” for “20:L”, “[…]” for “20:L/min”

[15] = molecular target: T2, recombinant human IGFBP-3; assay: BIAcore competition, IGFBP-3 to immobilized IGF-1
Description: as §2, with “chip. […]” for “chip.”

[16] = molecular target: T1, human IGFBP-1; assay: ELISA inhibition assay
[17] = molecular target: T1, human IGFBP-1; assay: inhibition assays
[18] = molecular target: IGF-1 G1S-A70V displayed on phage (human; bacteriophage M13); assay: competitive phage ELISA: phage on an IGFBP-3-coated plate (1 µg/ml), competed by soluble IGFBP-1; OD492, mean ± SD, n=2
[19] = molecular target: IGF-1 G1S-A70V displayed on phage (human; bacteriophage M13); assay: competitive phage ELISA: phage displaying G1S-A70V IGF-1 on an IGFBP-1-coated plate (1 µg/ml), competed by soluble IGFBP-1; OD492

“IGF-1 F16A displayed on phage (from UniProt P69168 267-424) (ligand)” showed a relative IC50 (mut/G1S-A70V) [1] of 7 and a relative IC50 (mut/G1S-A70V) [2] of 6.

For “recombinant human IGFBP-3 (from UniProt P17936 28-291)”, the IC50 (read off the curve) [3] was 0.0007 µM and the IC50 [4] was 0.0005 µM.

suc-IPVSPDWFVCQ-NH2 (reading uncertain, also called phage parent t4H3.9) [BP3-108] gave an IC50 [5] of 20 µM.

VAWEVCWDRHDQGYICTTDS (peptide, not shown: large carriers, polyvalent display on M13 phage) [peptide-phage clone 4D3.11 (g8 display)] was tested, and the “% inhibition of phage binding by 100 nM IGF-1” value (from here on “% inhibition of phage binding”) [6] was 5%.

SGGAIYWPVEQFIAFMAVGK (peptide, not shown: large carriers, polyvalent display on M13 phage) [peptide-phage clone 23A3.3 (g8 display)] was tested, and the “% inhibition of phage binding” value [6] was about 20%.

SGGAIYMPVEQFIAFMAVGK (peptide, not shown: large carriers, polyvalent display on M13 phage) [peptide-phage clone 23A3.5 (g8 display)] was tested, and the “% inhibition of phage binding” value [6] was about 20%.

Work on suc-CQLVRPDLLLCQ-NH2 (disulfide 1-11; reading uncertain, also called phage parent t4H3.6) [BP3-107] yielded an IC50 [5] of 100 µM.

In the case of GQQSCAAGPLQWLCEHYFSTYGR (not fully specified (bridges); cysteine pairing not given here) [BP1-625], the “fold improved potency over BP1-01” value [7] is reported as about 20 fold.

For SEVGCRAGPLQWLCEKYFG (disulfide 5-14) [BP1-02], the “half-life for peptide dissociation” value [8] was about 28 s, the koff [8] was 0.0503 s⁻¹ and the kon [8] was 230000 M⁻¹ s⁻¹. The Kd [9] was 0.21 µM.

DMGVCADGPWMYVCEWTE (peptide, not shown: large carriers, polyvalent display on M13 phage) [peptide-phage clone 4B3.4 (g8 display)]: binds [10].

For CRAGPLQWLCEKYFG (disulfide 1-10) [BP1-01], the “fold potency reduction, IC50 (BP1-01)/IC50 (mut)” value [11] was 1.

B1: peptide-phage clone 4D3.5 (g8 display) (peptide, not shown: large carriers)
chain: WFKTVCYEWEDEVQCYTLEE
modifications: not fully specified (bridges); cysteine pairing not given here; also: polyvalent display on M13 phage, fused via linker to g8p
notes: polyvalent display on M13 phage
B1: binds [12].

For SEEVCWPVAEWYLCN (disulfide 5-14) [BP3-15], the IC50 [13] was 0.72 µM, the IC50 [14] was 0.78 µM and the IC50 [15] was 0.75 µM.

B2: peptide-phage clone 4D3.3 (g8 display) (peptide, not shown: large carriers)
chain: SEEVCWPVAEWYLCNMWGR
modifications: not fully specified (bridges); cysteine pairing not given here; also: polyvalent display on M13 phage, fused via linker to g8p
notes: as for B1
B2: binds [10].

SEEVCWPVAEWYLCNMWG (disulfide 5-14) [BP3-01-ox] gave an IC50 [13] of 2 µM, an IC50 [14] of 0.92 µM and an IC50 [15] of 2 µM.

CRAGPLQWRCEKYF (disulfide 1-10, also called BP1-16 L9R) [BP1-26]: no binding (tested: >570-fold the IC50 of BP1-16) [16].

CRAGPRQWLCEKYF (disulfide 1-10, also called BP1-16 L6R) [BP1-32]: no binding (tested: >1000-fold the IC50 of BP1-16) [16].

With EARVCRAGPLQWLCEKYFSTY (disulfide 5-14) [BP1-25] the “fold affinity improvement over BP1-16” value [17] was about 20 fold and the Kd [9] was 0.042 µM.

B3: peptide-phage clone 4D3.4 (g8 display) (peptide, not shown: large carriers)
chain: RVGAYISCSETECWVEDLLD
modifications: not fully specified (bridges); cysteine pairing not given here; also: polyvalent display on M13 phage, fused via linker to g8p
notes: as for B1
B3: binds [12].

B4: peptide-phage clone 4A3.1 (g8 display) (peptide, not shown: large carriers)
chain: SGTACYGGPEWWCCSLAGSP
modifications: not fully specified (bridges); also: displayed on M13 g8p phage, disulfide pairing of the three Cys not given here
notes: as for B1
B4: binds [10].

VCWPVAEWYLCN (disulfide 2-11) [BP3-17] gave an IC50 [14] of 5.1 µM and an IC50 [15] of 9 µM.

B5: human IGFBP-1 (protein, UniProt P08833 26-259, looked up)
chain: APWQCAPCSAEKLALCPPVSASCSEVTRSAGCGCCPMCALPLGAACGVATARCARGLSCRALPGEQQPLHALTRGQGACVQESDASAPHAAEAGSPESPESTEITEEELLDNFHLMAPSEEDHSILWDAISTYDGSKALHVTNIKKWKEPCRIELYRVVESLAKAQETSGEEISKFYLPNCNKNGFYHSRQCETSMDGEAGLCWCVYPWNGKRIPGSPEIRGDPNCQIYFNVQN
For B5, the IC50 (read off the curve) [18] was 0.008 µM and the IC50 [19] was 0.0085 µM.
